Where a chain is given by its changes, count along the chain named. Each block holds one binder with its values, some of them ahead of it.
Legend:
[1] = target: T1, human ASCT2 (system ASC amino acid transporter 2, SLC1A5) (human, UniProt Q15758 1-541); experiment: cell-based or functional assay
T1 sequence (looked up): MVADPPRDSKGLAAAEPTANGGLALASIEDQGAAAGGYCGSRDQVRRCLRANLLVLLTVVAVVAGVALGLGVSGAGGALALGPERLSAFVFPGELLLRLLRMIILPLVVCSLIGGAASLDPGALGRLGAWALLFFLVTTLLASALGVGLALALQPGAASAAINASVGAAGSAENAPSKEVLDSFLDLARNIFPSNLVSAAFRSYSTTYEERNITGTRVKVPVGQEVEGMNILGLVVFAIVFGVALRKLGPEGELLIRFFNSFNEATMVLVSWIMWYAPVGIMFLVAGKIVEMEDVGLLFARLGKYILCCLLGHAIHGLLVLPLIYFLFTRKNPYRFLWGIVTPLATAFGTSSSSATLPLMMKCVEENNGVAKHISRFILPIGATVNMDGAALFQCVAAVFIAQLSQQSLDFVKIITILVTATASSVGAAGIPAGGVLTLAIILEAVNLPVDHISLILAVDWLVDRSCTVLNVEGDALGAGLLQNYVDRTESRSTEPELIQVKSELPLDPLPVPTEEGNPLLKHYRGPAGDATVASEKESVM

[2] = target: T1, human ASCT2 (system ASC amino acid …); experiment: binding to CHOK1 cells stably expressing human ASCT2; clones conjugated to tubulysin AZ1508 per paragraph 353
[3] = target: T1, human ASCT2 (system ASC amino acid …); experiment: cell-based or functional assay; remark: listed apart in the source
[4] = target: T2, cynomolgus monkey ASCT2 (cynomolgus monkey (Macaca fascicularis), UniProt G7PXZ3 1-542); experiment: cell-based or functional assay
T2 sequence: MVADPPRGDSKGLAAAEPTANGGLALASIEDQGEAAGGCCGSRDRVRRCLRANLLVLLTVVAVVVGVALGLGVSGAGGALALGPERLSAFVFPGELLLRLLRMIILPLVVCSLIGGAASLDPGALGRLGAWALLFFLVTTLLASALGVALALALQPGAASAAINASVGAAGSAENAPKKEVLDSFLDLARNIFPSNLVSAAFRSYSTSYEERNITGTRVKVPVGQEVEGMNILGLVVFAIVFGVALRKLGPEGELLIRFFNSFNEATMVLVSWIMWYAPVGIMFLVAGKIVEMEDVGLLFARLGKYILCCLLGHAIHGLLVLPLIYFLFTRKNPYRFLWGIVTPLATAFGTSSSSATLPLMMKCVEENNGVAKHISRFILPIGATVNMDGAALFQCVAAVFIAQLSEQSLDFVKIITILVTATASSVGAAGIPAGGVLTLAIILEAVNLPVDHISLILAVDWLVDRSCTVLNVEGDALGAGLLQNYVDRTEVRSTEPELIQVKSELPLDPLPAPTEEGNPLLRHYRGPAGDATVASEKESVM

[5] = target: T2, cynomolgus monkey ASCT2; experiment: binding to CHOK1 cells stably expressing cyno ASCT2; clones conjugated to tubulysin AZ1508 per paragraph 353
[6] = target: T1, human ASCT2 (system ASC amino acid …); experiment: cell-based or functional assay; remark: listed apart in the source
[7] = target: T2, cynomolgus monkey ASCT2; experiment: flow cytometry, titration of fluorophore-labelled antibody on CHOK1 cells stably expressing cyno ASCT2
Procedure: (§1) Human, cynomolgous monkey, and CHO-derived cell lines expressing ASCT2 were utilized to assessed binding affinity and cross reactivity of ASCT2-specific antibodies. Apparent affinities were measured by titrating fluorophore labeled antibodies.
(§2) Results for human cancer cell line Ca127 are shown in FIG. 6A; results for human cancer cell line FaDu are shown in FIG. 6B; results for human cancer cell line SSC15 are shown in FIG. 6C; results for human cancer cell line WiDr are shown in FIG. 6D; results for CHOK1 cells stably expressing human ASCT2 are shown in FIG. 6E; results for CHOK1 cells stably expressing cyno ASCT2 are shown in FIG. 6F); results for cyno cancer cell line CynoMK1 are shown in FIG. 6G; and results for mock transfected CHOK1 cells are shown in FIG. 6H.

[8] = target: T2, cynomolgus monkey ASCT2; experiment: flow cytometry, titration of fluorophore-labelled antibody on cyno cell line Cyno MK1
Procedure: as §1, §2

[9] = target: T1, human ASCT2 (system ASC amino acid …); experiment: flow cytometry, titration of fluorophore-labelled antibody on FaDu cells
Procedure: as §1, §2

[10] = target: T3, ASCT1 (SLC1A4) (human, UniProt P43007 1-532); experiment: flow cytometry on SKMEL-2 cells after shRNA knockdown of ASCT1 (binding not ablated)
T3 construct: whole, on cells; also called ASC transporter 1; human ASCT1
T3 sequence (looked up): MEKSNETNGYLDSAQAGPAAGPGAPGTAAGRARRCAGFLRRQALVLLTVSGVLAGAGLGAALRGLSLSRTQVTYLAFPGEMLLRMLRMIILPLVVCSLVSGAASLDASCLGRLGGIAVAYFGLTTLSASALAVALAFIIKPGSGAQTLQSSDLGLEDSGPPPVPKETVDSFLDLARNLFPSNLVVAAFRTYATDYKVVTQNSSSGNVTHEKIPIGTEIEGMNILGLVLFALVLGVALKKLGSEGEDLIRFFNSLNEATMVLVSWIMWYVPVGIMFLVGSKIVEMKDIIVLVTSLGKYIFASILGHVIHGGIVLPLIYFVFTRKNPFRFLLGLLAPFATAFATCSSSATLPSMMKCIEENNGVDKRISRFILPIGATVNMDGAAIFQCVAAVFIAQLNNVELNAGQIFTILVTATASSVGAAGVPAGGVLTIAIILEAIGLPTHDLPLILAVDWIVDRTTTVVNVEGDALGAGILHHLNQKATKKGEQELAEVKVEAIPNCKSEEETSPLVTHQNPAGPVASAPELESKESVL

[11] = target: T1, human ASCT2 (system ASC amino acid …); experiment: flow cytometry, titration of fluorophore-labelled antibody on WiDr cells
Procedure: as §1, §2

[12] = target: T1, human ASCT2 (system ASC amino acid …); experiment: flow cytometry, titration of fluorophore-labelled antibody on Cal27 cells
Procedure: as §1, §2

[13] = target: T1, human ASCT2 (system ASC amino acid …); experiment: flow cytometry, titration of fluorophore-labelled antibody on CHOK1 cells stably expressing human ASCT2
Procedure: as §1, §2

[14] = target: T1, human ASCT2 (system ASC amino acid …); experiment: flow cytometry, titration of fluorophore-labelled antibody on SSC15 cells
Procedure: as §1, §2

[15] = target: T1, human ASCT2 (system ASC amino acid …); experiment: flow cytometry on WiDr cells and CHO cells expressing HuASCT2
Text: The amino acid sequences of the VH and VL domains for 17c10 were aligned to the known human germline sequences in the VBASE database, and the closest germline was identified by sequence similarity. For the VH domain, this was IgVh4-34*01; for the VL domain, it was IgKv1-5*03. For 17c10, the germlining process involved reverting 1 framework residue in the VH domain and 5 residues in the VL domain. In the VH domain, the reversion mutation was at Kabat position 82a, where threonine (T) was reverted to serine (S). In the VL domain, the mutations were at Kabat position 13, 21, 39, 70, and 76 where at Kabat position 13 threonine (T) was reverted to alanine (A); at Kabat position 21 leucine (L) was reverted to isoleucine (I); at Kabat position 39 Asparagine (N) was reverted to lysine (K); at Kabat position 70 aspartate (D) was reverted to glutamate (E), and at Kabat position 76 threonine (T) was reverted to serine (S). These changes were made by synthesizing VH and VL domains with these mutations and replacing existing VH and VL using restriction digestion and ligation. Both the germlined and original (non-germlined) 17c10 were expressed as IgGs, and their affinity to multiple ASCT2-expressing cell lines was assessed by flow cytometry.

B1: anti-ASCT2 17C10 classically conjugated to tubulysin AZ1508 (antibody, human IgG1, V domains shown)
VH: QVQLQQWGAGLLKPSETLSLTCAVYGGSFSGYYWSWIRQPPGKGLEWIGEIHHSGGANYNPSLKSRVTISVDTSKNQFSLKLTSVTAADTAVYYCARGQGKNWHYDYFDYWGQGTLVTVSS
VL: DIQMTQSPSTLSTSVGDRVTLTCRASQSIRSWLAWYQQNPGKAPKLLIYKASILKIGVPSRFSGSGSGTDFTLTITSLQPDDFATYYCQQYYSYSRTFGQGTKVEIK
modifications: tubulysin AZ1508 conjugated classically (native cysteine residues, thiol-maleimide linkage); positions not given
- IC50 (ng/ml), ADC-mediated cytotoxic killing, SW48 cells, CellTiter-Glo, 72 h [1]: 46 ng/mL

- EC50 [2]: 8.1 nM
- EC50 [5]: 28.4 nM
B2: anti-ASCT2 antibody 1e8 conjugated to tubulysin AZ1508 (Example 4) (antibody, V domains shown)
VH: B1 VH with R38P, L45V, H52N, G56S, A57T, V71S, H104N
VL: B1 VL with T13A, N39K, I53S, I56S, T76S, Y94F
modifications: tubulysin AZ1508 conjugated; mode and site of conjugation not stated for these experiments
notes: Antibody-drug conjugate; also called 1e8 conjugated to tubulysin 1508
- Cytotoxicity IC50 (ng/ml), CHOK1 cells stably expressing human ASCT2 [3]: 20.7 ng/mL
- Cytotoxicity IC50 (ng/ml), CHOK1 cells stably expressing cyno ASCT2 [4]: 140 ng/mL

B3: anti-ASCT2 1E8 classically conjugated to tubulysin AZ1508 (antibody, human IgG1, V domains shown)
VH: B1 VH with R38P, L45V, H52N, G56S, A57T, V71S, H104N
VL: B1 VL with T13A, N39K, I53S, I56S, T76S, Y94F
modifications: tubulysin AZ1508 conjugated classically (native cysteine residues, thiol-maleimide linkage); positions not given
- IC50 (ng/ml), ADC-mediated cytotoxic killing, SW48 cells, CellTiter-Glo, 72 h [1]: 34.8 ng/mL

- EC50 [2]: 8.6 nM
- EC50 [5]: 9.6 nM
B4: anti-ASCT2 antibody 17c10 conjugated to tubulysin AZ1508 (17c10-AZ1508, Example 4) (antibody, V domains shown)
VH: B1 VH
VL: B1 VL
modifications: tubulysin AZ1508 conjugated; mode and site of conjugation not stated for these experiments
notes: Antibody-drug conjugate; also called 17c10-ADC; ASCT2-ADC
- IC50 (ng/ml), cytotoxic killing of SKMEL-2 cells with ASCT1-shRNA1 [6]: 7.59 ng/mL
- IC50 (ng/ml), cytotoxic killing of SKMEL-2 cells with ASCT1-shRNA2 [6]: 4.96 ng/mL
- IC50 (ng/ml), cytotoxic killing of SKMEL-2 cells with ASCT2-shRNA [6]: 205 ng/mL
- IC50 (ng/ml), cytotoxic killing of SKMEL-2 cells with NTshRNA [6]: 14.3 ng/mL
- Cytotoxicity IC50 (ng/ml), CHOK1 cells stably expressing human ASCT2 [3]: 5.53 ng/mL
- Cytotoxicity IC50 (ng/ml), CHOK1 cells stably expressing cyno ASCT2 [4]: 8.59 ng/mL

- EC50 [7]: 9.6 nM
- EC50 [8]: 6.7 nM
- EC50 [9]: 3.8 nM
- binding result [10]: no binding
- EC50 [11]: 7 nM
- EC50 [12]: 2.8 nM
- EC50 [13]: 8.6 nM
- EC50 [14]: 3.6 nM
B5: anti-ASCT2 antibody 17c10 (original, non-germlined, parental) (antibody, V domains shown)
VH: B1 VH
VL: B1 VL
notes: also called 17c10 parental antibody; ASCT2 mAb 17c10

- EC50 [7]: 28.4 nM
- EC50 [8]: 14.8 nM
- EC50 [9]: 6.8 nM
- EC50 [11]: 5.8 nM
- EC50 [12]: 13 nM
- EC50 [13]: 8.1 nM
- EC50 [14]: 8.8 nM
B6: anti-ASCT2 antibody 1e8 (original) (antibody, V domains shown)
VH: B1 VH with R38P, L45V, H52N, G56S, A57T, V71S, H104N
VL: B1 VL with T13A, N39K, I53S, I56S, T76S, Y94F
notes: also called ASCT2 mAb 1e8

- binding result [15]: binds
B7: germlined 17c10 antibody (antibody, V domains shown)
VH: B1 VH with T83S
VL: B1 VL with T13A, L21I, N39K, D70E, T76S
notes: also called 17c10 germlined antibody

Source: US20190367605A1 (AstraZeneca / MedImmune, published 2019)
